Consider seven molecules from patent US10261099B2, “Cancer marker and therapeutic target” (Cancer Research Technology Ltd., priority 2007, dated 2019).

Entries after “also recorded” stand apart in the source; their conditions may differ.

The test system of assay [1] is CCR4 positive and negative cells. As to the kind of experiment: CCR4 expression of CCR4 positive and negative cells exposed to cytokines. The format is cell-based. Particulars: cytokines of the cervical microenvironment. The text has this:
CCR4 positive and negative cells were exposed to a number of cytokines (TNF-α, TGF-β, IFN-γ, IL-4 and IL-10) known to be present in the cervical microenvironment and for which receptors were likely to be present on the tumour cells.

Assay [2] deals with C41 cervical cancer cell line. Nature of the assay: CCR4 expression on C41 cells after cytokine stimulation (FACS). The format is cell-based, human. Particulars: 20 ng/ml, 24 h, versus unstimulated cells. The protocol: Dashed line: isotype control; grey line CCR4 expression; bold line; CCR4 expression after cytokine stimulation.
The most common cytokines present in a tumour are IL-10, TGF-β, FGF, TNF-α. The C41 cervical cancer cell line was stimulated in culture with different cytokines (IL-10, TNF-α, TGF-β, FGF; 20 ng/ml) for 24 h. The expression of CCR4 was then determined by FACS analysis.

In assay [3] the test system is C-41 cervical cancer cell line. Nature of the assay: trans-well migration assay of C-41 cells towards CCR4 ligands. Particulars: for chemotactic response of C-41 cells: trans-well migration assay. The format is cell-based, human. The protocol: (§1) The cervical cancer cell line C-41 (ATCC, Rockville, Md, USA) was cultured in DMEM medium supplemented with 10% FCS. […] Proliferation and migration were assessed using methods described previously.
To investigate the biological significance of CCR4 expression on cervical cancer cells a number of cervical cancer cell lines (CaSki, Me180, Hela-Ohio, Hela-S3, Siha, C33A, C41-1) were screened for CCR4 expression. The cell line C-41 expressed cell surface CCR4 in a constitutive manner (FIG. 6A). Using FACS analysis it was shown that C-41 cells expressed cell surface CCR4. […] Following stimulation with 100 ng/ml CCL22, cell surface CCR4 protein was internalized on C-41 cells after 2 hours and returned back to the surface after 3 hours (FIG. 6B).

The test system of assay [4] is C-41 cervical cancer cell line. As to the kind of experiment: C-41 growth/proliferation under suboptimal conditions after ligand stimulation. The format is cell-based, human. Particulars: 6 days.
The target in another assay is T1, CCR4 (Homo sapiens, UniProt P51679).
T1 construct: The cell line C-41 expressed cell surface CCR4 in a constitutive manner; host or cells: C-41 cervical cancer cell line
T1 sequence (P51679 1-360): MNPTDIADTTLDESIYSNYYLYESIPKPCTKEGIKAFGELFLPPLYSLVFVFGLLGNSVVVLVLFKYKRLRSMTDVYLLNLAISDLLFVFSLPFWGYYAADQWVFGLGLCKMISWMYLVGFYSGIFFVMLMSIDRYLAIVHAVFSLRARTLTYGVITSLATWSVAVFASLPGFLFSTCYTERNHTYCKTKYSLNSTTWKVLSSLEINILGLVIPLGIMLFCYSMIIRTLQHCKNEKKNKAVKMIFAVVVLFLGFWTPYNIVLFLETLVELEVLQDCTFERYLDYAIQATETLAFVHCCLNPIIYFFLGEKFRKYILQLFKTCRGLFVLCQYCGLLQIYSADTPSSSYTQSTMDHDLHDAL
As to the kind of experiment: CCR4 expression/internalization on C-41 cells after ligand stimulation (FACS). Conditions: stimulation with 100 ng/ml ligand. It counts as cell-based. The procedure:
Values are the mean±SD of 10 determinations,*P <0.05, **P<0.01.
as §1
To investigate the biological significance of CCR4 expression on cervical cancer cells a number of cervical cancer cell lines (CaSki, Me180, Hela-Ohio, Hela-S3, Siha, C33A, C41-1) were screened for CCR4 expression.

As for TNF-α, the “influence on CCR4 expression” value in assay [1] is “None of these influenced CCR4 expression”.

Regarding TGF-β, in assay [2], the “CCR4 expression on C41 cells after cytokine stimulation” value is “upregulated in terms of percentage of positive cells”. Also, the “influence on CCR4 expression” value in assay [1] is given as “None of these influenced CCR4 expression”.

B1: IL-10: cytokine commonly present in a tumour, used to stimulate C41 cells (protein, UniProt P22301 19-178, looked up)
Interleukin-10: SPGQGTQSENSCTHFPGNLPNMLRDLRDAFSRVKTFFQMKDQLDNLLLKESLLEDFKGYLGCQALSEMIQFYLEEVMPQAENQDPDIKAHVNSLGENLKTLRLRLRRCHRFLPCENKSKAVEQVKNAFNKLQEKGIYKAMSEFDIFINYIEAYMTMKIRN
As for B1, in assay [2], the “CCR4 expression on C41 cells after cytokine stimulation” value is given as “upregulated in terms of percentage of positive cells”. For the same molecule, the “influence on CCR4 expression” value in assay [1] is “None of these influenced CCR4 expression”.

B2: CCL17: chemokine ligand of CCR4 (PeproTech) used to stimulate C-41 cells (protein, UniProt Q92583 24-94, looked up)
C-C motif chemokine 17: ARGTNVGRECCLEYFKGAIPLRKLKTWYQTSEDCSRDAIVFVTVQGRAICSDPNNKRVKNAVKYLQSLERS
Take B2: the “migration of C-41 cells” value in assay [3] (10 ng/ml), in assay [3] (100 ng/ml) and in assay [3] (1000 ng/ml) was “induced significant migration” in each case. Moreover, in assay [3], the “chemotactic response of C-41 cells” value was “typical bell-shaped chemotactic response”. The figures for the “C-41 cell growth / proliferation” value in assay [4] (1 ng/ml), in assay [4] (10 ng/ml) and in assay [4] (100 ng/ml) were “not”, “significant growth increase; also recorded: increased proliferation” and “significant growth increase; also recorded: increased proliferation”, respectively. The “cell surface CCR4 returned back to the surface after” value with CCR4 amounted to 3 h.

B3: CCL22: chemokine ligand of CCR4 (PeproTech) used to stimulate C-41 cells (protein, UniProt O00626 25-93, looked up)
C-C motif chemokine 22: GPYGANMEDSVCCRDYVRYRLPLRVVKHFYWTSDSCPRPGVVLLTFRDKEICADPRVPWVKMILNKLSQ
In the case of B3, in assay [3], the “chemotactic response of C-41 cells” value is listed as “typical bell-shaped chemotactic response”. Besides, the entries for the “C-41 cell growth / proliferation” value in assay [4] (1 ng/ml), in assay [4] (10 ng/ml) and in assay [4] (100 ng/ml) were “significant increased growth; also recorded: simulated C-41 cell growth”, “not” and “significant increased growth; also recorded: simulated C-41 cell growth”, respectively. In addition, the “cell surface CCR4 protein internalized on C-41 cells after” value with CCR4 was 2 h. In the assay with CCR4, the “cell surface CCR4 returned back to the surface after” value came out at 3 h.

B4: IL-4: cytokine known to be present in the cervical microenvironment (protein, UniProt P05112 25-153, looked up)
Interleukin-4: HKCDITLQEIIKTLNSLTEQKTLCTELTVTDIFAASKNTTEKETFCRAATVLRQFYSHHEKDTRCLGATAQQFHRHKQLIRFLKRLDRNLWGLAGLNSCPVKEANQSTLENFLERLKTIMREKYSKCSS
Take B4: in assay [1], the “influence on CCR4 expression” value is “None of these influenced CCR4 expression”.

B5: IFN-γ: cytokine known to be present in the cervical microenvironment (protein, UniProt P01579 24-161, looked up)
Interferon gamma: QDPYVKEAENLKKYFNAGHSDVADNGTLFLGILKNWKEESDRKIMQSQIVSFYFKLFKNFKDDQSIQKSVETIKEDMNVKFFNSNKKKRDDFEKLTNYSVTDLNVQRKAIHELIQVMAELSPAAKTGKRKRSQMLFRG
With B5, the “influence on CCR4 expression” value in assay [1] was “None of these influenced CCR4 expression”.
